Target: GST-V-1 (human) (UniProt P58546)
Experiment: SPR; GST-fusion protein (GST-V-1, GST-CA or GST-CD) immobilised on a CM5 chip via anti-GST antibodies (up to 200 RU), CP perfused at 20 µl/min; 20°C; 50 mM KCl, 1 mM MgCl2, 0.005% Tween-20, 10 mM imidazole pH 7.0; 1:1 fit, KD from the kinetic rate constants (steady state for several fast-dissociating mutants)

Sequence of GST-V-1 (human) (P58546 whole entry, the tested form may be a part): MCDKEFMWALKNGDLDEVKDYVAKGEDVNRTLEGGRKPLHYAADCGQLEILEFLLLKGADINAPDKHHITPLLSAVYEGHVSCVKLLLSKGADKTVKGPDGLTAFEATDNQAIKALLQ

fold reduction of the affinity against the wild type proteins: > 25 fold
Substance: CP with mutations of residues which form the “basic triad” (CP (α) Lys256, Arg260, Arg266)

— article PMC2897767, “Two Distinct Mechanisms for Actin Capping Protein Regulation—Steric and Allosteric Inhibition” (PLoS Biology, 2010)
